According to patent US7256256B1, “CDK4 binding peptide” (United States of America as represented by the Secretary, …, priority 1999, dated 2007):

T1: CDK4 (Mus musculus, UniProt P30285)
T1 sequence (P30285 1-303): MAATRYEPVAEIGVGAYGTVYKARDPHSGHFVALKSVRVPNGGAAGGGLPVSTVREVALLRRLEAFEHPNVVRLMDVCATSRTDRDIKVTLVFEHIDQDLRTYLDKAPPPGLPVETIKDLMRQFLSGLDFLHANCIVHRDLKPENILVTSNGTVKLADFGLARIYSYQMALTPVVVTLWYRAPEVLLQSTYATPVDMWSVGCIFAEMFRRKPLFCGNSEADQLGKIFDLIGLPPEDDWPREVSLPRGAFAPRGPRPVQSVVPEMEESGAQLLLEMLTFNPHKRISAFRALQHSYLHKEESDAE


Legend:
C2C12 myoblasts = assay: RB phosphorylation and growth inhibition in cotransfected C2C12 myoblasts; assay type: cell-based, mouse
Text: C2C12 myoblasts were cotransfected with a GST-pCEFL RB expression plasmid (RB aa 767–928) and pCDNA3 expression plasmids for full-sized or the C-terminus of MyoD(CMD1). GST-RB was recovered from the cells using methods known to those of skill in the art. The samples were adjusted for equal levels GST protein and loaded on SDS-PAGE gels for western analysis by phosphoserine 780 and 795-specific antibodies.

CDK4 [1] = target: T1, CDK4; assay: GST fusion pull-down binding assay with CDK4 from Sf9 cell extracts, anti-CDK4 immunoblot; parameters: made in house; host or cells: Sf9 insect cells, baculovirus; conditions: GST fusion protein on glutathione agarose; CDK4 from baculovirus infected Sf9 cell extracts
Procedure: The Sf9 cell extract was incubated with agarasoe bound with either glutathione transferase (GST) alone, or GST fusion proteins encoding one of the four different vertebrate myogenic factors from chicken: CMD1 (MyoD), Ch-myogenin, Ch-myf5 an Ch-mrf4 using methods known to those of skill in the art. Any GST complexes formed were recovered on glutathione-Sepharose beads. The recovered GST complexes were then washed, heated in sample buffer and loaded on an SDS-PAGE gel.
The gel was then analyzed by immunoblot with anti-CDK4 affinity purified rabbit polyclonal antibody on HyBond ECL (Amersham). The anti-CKD4 antibody was diluted 1:2,000–5,000. The second antibody was HRP anti-rabbit and was diluted 1:10,000 (Pierce cat. no. 31460). The signal was detected using SuperSignal Ultra Reagent (Pierce cat. no. 34075).
Proteins were expressed in E. coli strain BL21 (DE3) and purified as described by Shirakata et al., Genes Dev. 1993 7(12A):2456–70. The MyoD-GST fusion proteins were bound to glutathione agaraose.
The binding experiments were performed with CDK4 produced in the baculovirus system (Kato et al., Genes Dev. 1993 7(3):331–42) essentially as described by Kaelin et al., Cell 1991 64(3):521–32.
Deletion mapping of the MyoD (CMD1) carboxy terminus narrowed the CDK4-binding region to a maximum of fifteen amino acids between residues 189–203, well outside the bHLH domain (FIG. 10b, lanes 4 and 5). To confirm that these fifteen amino acids bound CDK4, the fifteen amino acid peptide was joined to glutathione transferase and tested for its ability to bind the CDK4 from Sf9 cell extracts.

10T1/2 cells = assay: BrdU incorporation growth arrest assay in transfected 10T1/2 cells; assay type: cell-based, mouse; conditions: for growth inhibitory activity (BrdU positive cells): 10T1/2 cells, 20% fetal calf serum, one hour BrdU pulse, domains with NLS in pCDNA3 or GST-pCEFL
Procedure: 10T1/2 cells in growth medium were cotransfected with plasmids expressing full-sized MyoD(CMD1) or the indicated domains, either as GST fusions in GST-pCEFL or as subclones in pCDNA3, along with a lacZ expression construct, pCH110, to mark transfected cells. The various domains were targeted to the nucleus with a nuclear tag in the absence of an existing NLS.
Cultures were maintained in 20% fetal calf serum. 72 hours after transfection cultures were refed with the same medium and 12 hours later they were given a one hour pulse with BrdU (10 μM) prior to fixation, as previously described by Crescenzi et al., PNAS USA 1990 87(21):8442–6; and Sorrentino et al., Nature, 1990 345(6278):813–5. Cells were then reacted with rabbit anti-BrdU antibody (Jackson labs) and Xgal.

CDK4 and cyclin D1 = target: T2, CDK4 and cyclin D1 (Mus musculus, UniProt P30285); assay: In vitro CDK4 kinase assay on GST-RB, Western blot with phosphoserine 780/795 antibodies; assay type: biochemical; conditions: proteins added in two-fold increments from 75 ng to 300 ng; phosphoserine 780 antibody (identical with 795)
T2 construct: made in house; host or cells: Sf9 insect cells coinfected with baculovirus stocks (from C. J. Sherr)
Procedure: Active CDK4 was produced in Sf9 cells coinfected with baculovirus stocks encoding CDK4 and cyclin D1 (from C. J. Sherr).
The kinase assay was performed essentially as described by Kato, et al., Genes Dev, (1993), 7(3):331–42. The CDK4-specific kinase inhibitor p16 (from D. Beach, [as described in Serrano, et al., Nature, (1993), 366(6456): 704–7]) was used as a GST-p16 fusion added to the kinase reaction. The GST-RB fusion (767–928) was used as a kinase target as previously described Kato, et al., Genes Dev, (1993), 7(3):331–42.
To test for kinase inhibition, the various proteins and protein domains were added to the reaction in two-fold increments from 75 ng to 300 ng. […] For the GST constructs, total protein concentration was kept constant in the kinase reaction by adding GST protein. After the assay the total reaction was run on SDS PAGE gels and analyzed by Western blot analysis. Specific phosphorylation of RB was measured with rabbit polyclonal antibodies to RB phosphoserines 780 or 795 (New England Biolabs).

[2] = tested on: CDK4 target sites, serines 780 and 795 of RB; assay: Phosphorylation of cotransfected GST-RB target in 10T1/2 cells, Western blot; assay type: cell-based, mouse; conditions: 48 hours after transfection, nuclear extracts
Procedure: The inhibitory activity of the fifteen amino acid CDK4 binding peptide on RB phosphorylation in cells was examined by fusing the fifteen amino acid CDK4-binding peptide of MyoD with a nuclear localization tag to the carboxy terminus of GFP and used in the same transfection protocol with GST-RB.
10T1/2 cells were cotransfected with a GST-RB target (amino acids 767–928) containing a nuclear localization tag, and either MyoD(CMD1) or the carboxy terminus of MyoD with an NLS.
48 hours after transfection, nuclear extracts of the 10T1/2 cells were prepared. The nuclear extracts were passed over glutathione agaraose to capture the GST-RB target.
Western blot analysis of the captured GST-RB target was performed with phosphoserine specific antibodies to the CDK4 target sites, serines 780 and 795. Gel loadings for the phosphoserine antibody analysis were adjusted to the same amount of GST-RB target protein by preliminary western analysis of the extracts (FIG. 13).

CDK4 [3] = target: T1, CDK4; assay: Mammalian two-hybrid luciferase reporter assay with vp16-CDK4 in 10T1/2 fibroblasts; assay type: cell-based; conditions: average of three experiments
Text: The interaction between MyoD and CDK4 in vivo was examined using a mammalian version of the yeast two hybrid system described by Finkel et al., (1993) J Biol Chem 268, 5–8.
MyoD and myogenin (MGN) were each cloned into the gal4 DNA-binding domain vector, pM. CDK4 was inserted into the vp16 activation domain plasmid, pVP16 using methods known to those of skill in the art.
10T1/2 fibroblasts (3×10^5 cells per 60 mm dish or multiwell plate) grown in DMEM with either 10% fetal calf serum were co-transfected with either gal4-MyoD or gal4-MGN along with vp16-CDK4 and a luciferase reporter using Fugene-6 (Boehringer-Mannheim) according to the manufacturer's directions. 1 μg gal4 luciferase reporter, 2 μg each of the gal4 (pM vector, Clonetech) and vp16 (pvp16 vector, Clonetech) constructs, and 300 ng of the beta galactosidase reporter pCH110 (Pharmacia), a total of 5.3 μg DNA, were used in each transfection. The pSV2-beta galactosidase reporter was used to normalize transfection efficiencies.
After 24–36 hours, if required, cells were placed in 2% horse serum plus insulin (10 μg/ml) to induce differentiation and destabilize cyclin D1. […]
24–48 hours after transfection, the luciferase reporter assay was performed according to the manufacturer's directions (Promega, cat. no. E4030) and measured in a Victor 1420 Multilabel Counter. […]

T2 sequence (P25322 whole entry partner, one chain of several): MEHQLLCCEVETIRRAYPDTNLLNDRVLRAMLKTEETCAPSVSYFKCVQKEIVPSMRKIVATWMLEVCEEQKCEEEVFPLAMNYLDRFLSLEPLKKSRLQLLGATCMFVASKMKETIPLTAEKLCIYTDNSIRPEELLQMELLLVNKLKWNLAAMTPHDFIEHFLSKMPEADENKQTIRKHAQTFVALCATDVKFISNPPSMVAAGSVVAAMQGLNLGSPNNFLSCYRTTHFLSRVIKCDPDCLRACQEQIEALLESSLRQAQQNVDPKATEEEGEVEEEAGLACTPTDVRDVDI

Row | binding to CDK4 (CDK4 [1]) | inhibition of CDK4-dependent phosphorylation of RB (GST-RB) in vitro (CDK4 and cyclin D1) | vp16 CDK4-dependent luciferase reporter activity (CDK4 [3]) | Molecule | CDK4 kinase activity and cell growth when expressed in cell nuclei (C2C12 myoblasts) | growth inhibitory activity (BrdU positive cells) (10T1/2 cells) | growth inhibitory effect when the peptide further includes nuclear localization signal (NLS) (10T1/2 cells; data not shown) | phosphorylation of serines 780 and 795 on cotransfected RB target protein [2]
1 | CDK4 bound | inhibit | – | C-terminus of MyoD(CMD1): amino acids 153–298 of CMD1 (protein, UniProt P16075 153-298, looked up, fragment) ALLREQEDAYYPVLEHYSGESDASSPRSNCSDGMMEYSGPPCSSRRRNSYDSSYYTESPNDPKHGKSSVVSSLDCLSSIVERISTDNSTCPILPPAEAVAEGSPCSPQEGGNLSDSGAQIPSPTNCTPLPQESSSSSSSNPIYQVL | – | – | – | reduced the phosphorylation of serines 780 and 795
2 | binds specifically | inhibit | four-fold increase | full-length MyoD(CMD1): full-sized chicken MyoD (CMD1), muscle specific bHLH transcription factor; used as GST, his-tag or gal4 constructs (protein, UniProt P16075 1-298, looked up, full-length GST, His or gal4 tagged, full-sized chicken MyoD (CMD1), muscle specific bHLH transcription factor; used as GST, his-tag or gal4 constructs) MDLLGPMEMTEGSLCSFTAADDFYDDPCFNTSDMHFFEDLDPRLVHVGGLLKPEEHPHTRAPPREPTEEEHVRAPSGHHQAGRCLLWACKACKRKTTNADRRKAATMRERRRLSKVNEAFETLKRCTSTNPNQRLPKVEILRNAIRYIESLQALLREQEDAYYPVLEHYSGESDASSPRSNCSDGMMEYSGPPCSSRRRNSYDSSYYTESPNDPKHGKSSVVSSLDCLSSIVERISTDNSTCPILPPAEAVAEGSPCSPQEGGNLSDSGAQIPSPTNCTPLPQESSSSSSSNPIYQVL | – | showed growth inhibitory activity | – | reduced the phosphorylation of serines 780 and 795
3 | does not bind to CDK4 | no inhibitory effect | – | Myogenin: chicken myogenic factor that does not bind CDK4, used as the control (protein, UniProt P17920 1-227, looked up, gal4 fusion) Myogenin: MELFETNPYFFPEQRFYDGENFLGSRLQGYEAAAFPERPEVTLCPESRGALEEKDSTLPEHCPGQCLPWACKICKRKTVSIDRRRAATLREKRRLKKVNEAFEALKRSTLLNPNQRLPKVEILRSAIQYIERLQSLLSSLNQQEREQRELRYRPAAPQPAAPSECGSGSSSCSPEWSTQLEFGTNPADHLLSDDQAEDRNLHSLSSIVESIAVEDVAVTFPEERVQN | – | – | – | –

Row | Molecule | binding to CDK4 (CDK4 [1]) | inhibition of CDK4-dependent phosphorylation of RB (GST-RB) in vitro (CDK4 and cyclin D1) | vp16 CDK4-dependent luciferase reporter activity (CDK4 [3]) | CDK4 kinase activity and cell growth when expressed in cell nuclei (C2C12 myoblasts) | growth inhibitory activity (BrdU positive cells) (10T1/2 cells) | growth inhibitory effect when the peptide further includes nuclear localization signal (NLS) (10T1/2 cells; data not shown) | phosphorylation of serines 780 and 795 on cotransfected RB target protein [2]
4 | fifteen amino acid CDK4-binding peptide: amino acids 189–203 of chicken MyoD (CMD1), SEQ ID NO: 1; tested as GST fusion, with NLS in cells | bound CDK4 as efficiently as full-sized MyoD (CMD1) | inhibit | – | inhibits CDK4 kinase activity and cell growth | as potent as full-sized MyoD(CMD1) in growth inhibitory activity | enhanced | –
5 | N-terminus (amino acids 1–92): amino acids 1–92 of CMD1 (protein, UniProt P16075 1-92, looked up, fragment) MDLLGPMEMTEGSLCSFTAADDFYDDPCFNTSDMHFFEDLDPRLVHVGGLLKPEEHPHTRAPPREPTEEEHVRAPSGHHQAGRCLLWACKAC | – | neither the N-terminus (amino acids 1–92) nor the bHLH domain of MyoD(CMD1) inhibited CDK4 activity | – | – | ineffective in growth inhibition | – | –
6 | bHLH domain of MyoD(CMD1): amino acids 93–153 of CMD1 (protein, UniProt P16075 93-153, looked up, fragment) KRKTTNADRRKAATMRERRRLSKVNEAFETLKRCTSTNPNQRLPKVEILRNAIRYIESLQA | – | neither the N-terminus (amino acids 1–92) nor the bHLH domain of MyoD(CMD1) inhibited CDK4 activity | – | – | effective at inhibiting cell growth | – | –
